What was measured:
[1] = test system: DUX4 protein; test: Western blot of V5-tagged DUX4 protein in co-transfected HEK293 cells; format: cell-based, human; conditions: for reduction of DUX4 protein levels / Average inhibition efficiency (%) of DUX4 protein levels / reduction of DUX4 protein levels compared to U6.miGFP / reduction of DUX4 protein levels relative to U6.mi405 / reduction of DUX4 protein levels compared to U6.mi405F: HEK293; for Average inhibition efficiency (%) of DUX4 protein levels: CMV.DUX4-FL/CMV.eGFP, molar ratio 1 to 3, eGFP normalizer, relative to U6-milacZ, N = 3-8; for effect on DUX4 protein level (DUX4-FL WT): FIG. 18, HEK293 western blot; for reduction of DUX4 protein levels compared to U6.miGFP: DUX4:mi405 molar ratio 2 to 1; for reduction of DUX4 protein levels relative to U6.mi405 / reduction of DUX4 protein levels compared to U6.mi405F: molar ratio 12 to 1, N=4
[2] = test system: DUX4 ORF (RenLuc-DUX4 ORF); test: Dual-luciferase assay, RenLuc-DUX4 ORF reporter co-transfected with miDUX4 plasmids in HEK293 cells; format: cell-based, human; conditions: for reduction of Renilla luciferase activity: normalized to U6.miGFP
Summary of the method: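 HEK293 cells were co-transfected by lipofection with a psiCheck2 reporter carrying the DUX4 ORF as the Renilla luciferase 3′UTR and U6-driven miDUX4 plasmids, at increasing reporter:miRNA molar ratios. Renilla/Firefly ratio was read 24 h or 48 h post-transfection, with Firefly as transfection normaliser. Values are means ± SEM of triplicates over 3 experiments.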

[3] = DUX4:mi405 molar ratio 2 to 1, HEK293, 24 h
[4] = DUX4:mi405 molar ratio 12 to 1, HEK293, 24 h

B1: U6.mir-675: U6 promoter-driven mir-675 expression plasmid with 40 nt 5' and 47 nt 3' flanking sequences (nucleic acid)
DNA: GACGCCGCCATCTCTAGGCCCGCGCCGGCCCCCTCGCACAGACTTGTGGGAGAAGCTCGGCTACTCCCCTGCCCCGGTTAATTTGCATATAATATTTCCTAGTAACTATAGAGGCTTAATGTGCGATAAAAGACAGATAATCTGTTCTTTTTAATACTAGCTACATTTTACATGATAGGCTTGGATTTCTATAAGAGATACAAATACTAAATTATTATTTTAAAAAACAGCACAAAAGGAAACTCACCCTAACTGTAAAGTAATTGTGTGTTTTGAGACTATAAATATCCCTTGGAGAAAAGCCTTGTTTGCGTTTAGTGAACCGTCAGATGGTACCGTTTAAACTCGAGCCCAGGGTCTGGTGCGGAGAGGGCCCACAGTGGACTTGGTGACGCTGTATGCCCTCACCGCTCAGCCCCTGGGACTAGAGCGGCCGCCACAGCGGGGAGATCCAGACATGATAAGATACATTTTTT
reduction of DUX4 protein levels ([1]; AAV.CMV.DUX4-FL co-transfection, 24 h, β-actin normalizer, relative to U6.milacZ): 46±11% | Average inhibition efficiency (%) of DUX4 protein levels [1]: 43±4% | effect on DUX4 protein level (DUX4-FL WT) [1]: reduce DUX4 protein level

B2: H1.mir-675: commercially available H1 promoter mir-675 expression plasmid (SBI Biosciences) (nucleic acid)
DNA: GAACGCTGACGTCATCAACCCGCTCCAAGGAATCGCGGGCCCAGTGTCACTAGGCGGGAACACCCAGCGCGCGTGCGCCCTGGCAGGAAGATGGCTGTGAGGGACAGGGGAGTGGCGCCCTGCAATATTTGCATGTCGCTATGTGTTCTGGGAAATCACCATAAACGTGAAATGTCTTTGGATTTGGGAATCTTATAAGTTCTGTATGAGACCACCCCCCAGGGTCTGGTGCGGAGAGGGCCCACAGTGGACTTGGTGACGCTGTATGCCCTCACCGCTCAGCCCCTGGGGAATTCTTCGATTCTGCTTTTTT
Average inhibition efficiency (%) of DUX4 protein levels [1]: 68 ± 5 (N = 4) % | effect on DUX4 protein level (DUX4-FL WT) [1]: reduce DUX4 protein level

B3: U6.mi405F: mi405 with one G at 5' end and 16 mer 3' flanking sequence with single CNNC motif (nucleic acid)
DNA: ACGCCGCCATCTCTAGGCCCGCGCCGGCCCCCTCGCACAGACTTGTGGGAGAAGCTCGGCTACTCCCCTGCCCCGGTTAATTTGCATATAATATTTCCTAGTAACTATAGAGGCTTAATGTGCGATAAAAGACAGATAATCTGTTCTTTTTAATACTAGCTACATTTTACATGATAGGCTTGGATTTCTATAAGAGATACAAATACTAAATTATTATTTTAAAAAACAGCACAAAAGGAAACTCACCCTAACTGTAAAGTAATTGTGTGTTTTGAGACTATAAATATCCCTTGGAGAAAAGCCTTGTTTGCTCGAGTGAGCGATCCAGGATTCAGATCTGGTTTCTGTAAAGCCACAGATGGGAAACCAGATCTGAATCCTGGACTGCCTACTAGTAATTCTTCGATTCTGCTTTTTT
increase of inhibition efficiency compared to U6.mi405 (western blot) ([1]; 1:4 DUX4:mi405 molar ratio, 24 h): 20% | reduction of DUX4 protein levels ([1]; 1:4 DUX4:mi405 molar ratio, 24 h, normalized to miGFP, N=2): 99±1% | reduction of DUX4 protein levels compared to U6.miGFP ([1]; 24 h): 81±9% | reduction of DUX4 protein levels relative to U6.mi405 ([1]; 24 h): 40±5% | reduction of relative Renilla luciferase activity ([2]; 1:4 DUX4:mi405 molar ratio, HEK293, 24 h, normalized to miGFP): 89±1% | reduction of Renilla luciferase activity [2, 3]: 77±1% | decrease of relative Renilla luciferase activity compared to U6.mi405 ([2]; DUX4:mi405 molar ratio 8:1, 24 h): 48±6% | reduction of Renilla luciferase activity [2, 4]: 45±4% | decrease of relative Renilla luciferase activity compared to U6.mi405 ([2]; DUX4:miDUX4 molar ratio 1:1): 33±2% | decrease of relative Renilla luciferase activity compared to U6.mi405 ([2]; DUX4:miDUX4 molar ratio 1:2): 32±2% | decrease of relative Renilla luciferase activity compared to U6.mi405 ([2]; DUX4:miDUX4 molar ratio 1:3): 34±1% | decrease of relative Renilla luciferase activity compared to U6.mi405 ([2]; DUX4:miDUX4 molar ratio 1:4): 32±1% | relative Renilla luciferase activity reached ([2]; DUX4:miDUX4 molar ratio 8:1): 38±2% | more efficient than U6.mi405 in reducing relative Renilla luciferase activity ([2]; DUX4:miDUX4 molar ratio 40:1): 13±2%

B4: U6.mi405H: mi405 construct with altered flanking sequences (nucleic acid)
DNA: ACGCCGCCATCTCTAGGCCCGCGCCGGCCCCCTCGCACAGACTTGTGGGAGAAGCTCGGCTACTCCCCTGCCCCGGTTAATTTGCATATAATATTTCCTAGTAACTATAGAGGCTTAATGTGCGATAAAAGACAGATAATCTGTTCTTTTTAATACTAGCTACATTTTACATGATAGGCTTGGATTTCTATAAGAGATACAAATACTAAATTATTATTTTAAAAAACAGCACAAAAGGAAACTCACCCTAACTGTAAAGTAATTGTGTGTTTTGAGACTATAAATATCCCTTGGAGAAAAGCCTTGTTTGACCGTTTAAACTCGAGTGAGCGATCCAGGATTCAGATCTGGTTTCTGTAAAGCCACAGATGGGAAACCAGATCTGAATCCTGGACTGCCTACTAGAGCGCACGCCAGTTTTTT
reduction of DUX4 protein levels compared to U6.miGFP ([1]; 24 h): 79±6% | reduction of DUX4 protein levels compared to U6.mi405F ([1]; 24 h): 33±14% | reduction of DUX4 protein levels relative to U6.mi405 ([1]; 24 h): 60±8% | reduction of Renilla luciferase activity [2, 3]: 80±1% | additional reduction of Renilla luciferase activity compared to U6.mi405F ([2]; DUX4:mi405 molar ratio 12 to 1): 25±6% | reduction of Renilla luciferase activity [2, 4]: 58±2%

B5: U6.mi405G: mi405 construct with altered flanking sequences (nucleic acid)
DNA: ACGCCGCCATCTCTAGGCCCGCGCCGGCCCCCTCGCACAGACTTGTGGGAGAAGCTCGGCTACTCCCCTGCCCCGGTTAATTTGCATATAATATTTCCTAGTAACTATAGAGGCTTAATGTGCGATAAAAGACAGATAATCTGTTCTTTTTAATACTAGCTACATTTTACATGATAGGCTTGGATTTCTATAAGAGATACAAATACTAAATTATTATTTTAAAAAACAGCACAAAAGGAAACTCACCCTAACTGTAAAGTAATTGTGTGTTTTGAGACTATAAATATCCCTTGGAGAAAAGCCTTGTTTGACCGTTTAAACTCGAGTGAGCGATCCAGGATTCAGATCTGGTTTCTGTAAAGCCACAGATGGGAAACCAGATCTGAATCCTGGACTGCCTACTAGAGAATTCTTCGATTCTGCTTTTTT
reduction of DUX4 protein levels compared to U6.miGFP ([1]; 24 h): 88±2% | reduction of DUX4 protein levels compared to U6.mi405F ([1]; 24 h): 52±9% | reduction of DUX4 protein levels relative to U6.mi405 ([1]; 24 h): 71±5% | reduction of Renilla luciferase activity [2, 3]: 81±1% | additional reduction of Renilla luciferase activity compared to U6.mi405F ([2]; DUX4:mi405 molar ratio 12 to 1): 26±5% | reduction of Renilla luciferase activity [2, 4]: 59±2%

From patent publication US20240093191A1, “COMPOSITIONS AND METHODS FOR TREATING DISEASE ASSOCIATED WITH DUX4 OVEREXPRESSION” (RESEARCH INSTITUTE AT NATIONWIDE CHILDREN'S HOSPITAL, priority 2021, published 2024)
